Data: article doi:10.1101/743195

Molecular target: human low-density lipoprotein (LDL) particles (human)
Assay: co-sedimentation

PCSK9 A44P (from UniProt Q8NBP7) (natural protein)
percent inhibition of LDL binding against WT: > 90%

PCSK9 Y38A (from UniProt Q8NBP7) (natural protein)
percent decrease of LDL binding: > 50%
